The results in this text go back to US20260258390.

Residue numbers refer to the chain shown, from its start. In names and notes the source's numbering stands.

To fix the notation:
T1: succinyl-L-Ala-L-Ala-L-Pro-L-Phe-p-nitroanilide (SEQ ID NO: 1)
T1 chain: AAPF

B1: N74D/S99G/V102W/S126G/N198A/N212S/T254P (variant of sequence SEQ ID NO: 5) (protein)
chain: AQSVPWGISRVQAPAAHNRGLTGSGVKVAVLDTGISTHPDLNIRGGASFVPGEPSTQDGNGHGTHVAGTIAALDNSIGVLGVAPSAELYAVKVLGASGGGSWSSIAQGLEWAGNNGMHVANLSLGGPSPSATLEQAVNSATSRGVLVVAASGNSGAGSISYPARYANAMAVGATDQNNNRASFSQYGAGLDIVAPGVAVQSTYPGSTYASLSGTSMATPHVAGAAALVKQKNPSWSNVQIRNHLKNTATSLGSPNLYGSGLVNAEAATR
B2: N74D/S99G/V102W/S126G/D191E/N198G/N212S/T254P (variant of sequence SEQ ID NO: 4) (protein)
chain: B1 chain with D191E, A198G
B3: wild-type subtilisin of Bacillus lentus (SEQ ID NO: 2) (protein)
chain: B1 chain with D74N, G99S, W102V, G126S, A198N, S212N, P254T
B4: N74D/S101A/V102W (control variant of WO1995010591; sequence SEQ ID NO: 3) (protein)
chain: B1 chain with G99S, S101A, G126S, A198N, S212N, P254T
B5: N74D/S97D/S126G/P204I/T254P/S259N (variant of sequence SEQ ID NO: 6) (protein)
chain: B1 chain with S97D, G99S, W102V, A198N, P204I, S212N, S259N

The target in this data set is T1, succinyl-L-Ala-L-Ala-L-Pro-L-Phe-p-nitro ….
As for B1, the Km pH 8.6 (mM) came out at 0.05 mM, the Km pH 10 (mM) is 0.09 mM, the kcat pH 8.6 (% of wild-type) (% of wild-type) was determined as 503 and the kcat pH 10 (% half-life of wild-type) (% of wild-type) was 723. Further, the kcat/Km pH 8.6 (% of wild-type) (% of wild-type) was 6360 and the kcat/Km pH 10 (% wild-type) was found to be 10800 % wild-type.

As for B2, the Km pH 8.6 (mM) worked out at 0.11 mM, the Km pH 10 (mM) came to 0.19 mM, the kcat pH 8.6 (% of wild-type) (% of wild-type) worked out at 579 and the kcat pH 10 (% half-life of wild-type) (% of wild-type) was determined as 719. The kcat/Km pH 8.6 (% of wild-type) (% of wild-type) worked out at 3330 and the kcat/Km pH 10 (% wild-type) is 5100 % wild-type.

Take B3: the Km pH 8.6 (mM) was determined as 0.63 mM, the Km pH 10 (mM) stood at 1.34 mM, the kcat pH 8.6 (% of wild-type) (% of wild-type) was 100 and the kcat pH 10 (% half-life of wild-type) (% of wild-type) was 100. Further, the kcat/Km pH 8.6 (% of wild-type) (% of wild-type) is 100 and the kcat/Km pH 10 (% wild-type) came to 100 % wild-type.

In the case of B4, the Km pH 8.6 (mM) stood at 0.29 mM, the Km pH 10 (mM) turned out to be 0.33 mM, the kcat pH 8.6 (% of wild-type) (% of wild-type) stood at 638 and the kcat pH 10 (% half-life of wild-type) (% of wild-type) was determined as 554. The kcat/Km pH 8.6 (% of wild-type) (% of wild-type) was 1390 and the kcat/Km pH 10 (% wild-type) amounted to 2260 % wild-type.

As to B5, the Km pH 8.6 (mM) came out at 0.66 mM, the Km pH 10 (mM) was 0.52 mM, the kcat pH 8.6 (% of wild-type) (% of wild-type) was 55 and the kcat pH 10 (% half-life of wild-type) (% of wild-type) was 37. The kcat/Km pH 8.6 (% of wild-type) (% of wild-type) was found to be 51 and the kcat/Km pH 10 (% wild-type) came to 97 % wild-type.
